Like-named read-outs stand apart in the source and are kept apart here.
How the values were obtained:
Assay in all cases: SEC-MALS
[1] = biological target: His-tagged NcKar9N-α•γ (β-interface mutant, Arg233Ala/Ile237Ala) (Naumovozyma castellii)
[2] = biological target: His-tagged NcKar9N-α•γ (β-interface mutant, Arg233Ala/Ile237Ala) (Naumovozyma castellii); remark: listed apart in the source
[3] = biological target: His-tagged NcKar9N-αβ• (γ-interface mutant, Tyr363Ala/Arg364Ala) (Naumovozyma castellii)
[4] = biological target: His-tagged NcKar9N-αβ• (γ-interface mutant, Tyr363Ala/Arg364Ala) (Naumovozyma castellii); remark: listed apart in the source
[5] = biological target: His-tagged N. castellii Kar9 N-terminal domain, wild type (NcKar9N-αβγ) (Naumovozyma castellii)

His-tagged NcKar9N-α•γ (β-interface mutant, Arg233Ala/Ile237Ala) (domain or fragment)
stoichiometry N [1]: 2
stoichiometry N [2]: 2

His-tagged NcKar9N-αβ• (γ-interface mutant, Tyr363Ala/Arg364Ala) (domain or fragment)
stoichiometry N [3]: < 4
stoichiometry N [4]: < 4

His-tagged N. castellii Kar9 N-terminal domain, wild type (NcKar9N-αβγ) (domain or fragment)
stoichiometry N [5]: 2

Source: paper doi:10.1101/2021.09.13.460064
